Results taken from the DeepSol protein solubility set.

test: soluble on expression in E. coli; label from the status in PepcDB or PDB records

Soluble on expression in E. coli, soluble:
MSEVNKKVQDGVDDYLEEEDFGQLLEAFDKSREEATTEGVIVEIKNDEVYVDIGKKSEGILALSEIQGDNSKLLFNVGDSIKVAVMGSRGGRSLLSHKKALRKEKVIEFIKNYQENQDDIFTVKVVGKNKGGLIVVDENDVEFFLPKSQYGFKETNNIIGKTFKVKIIKIDKDEQSIIVSRKKTLDDERRKRKELINNVAQQEDLIEGIVKKITTYGMFVDVGGVDGLVHYSEISYKGPVNPGTLYKEGDKVPVKVIKYDKERKHLSLSIKAALPDPWSEIKDTLDIGDTIKVIVSNIEPYGAFVDLGNDIEGFLHISEISWDKNIKNPKDYINKGQEIDVEVIEINPNERRLRVSLRNLLSRPFDEFMKSYKIADVVEGEITSVTSFGAFVKLGGIEGLLHNEDASWDRNDKCKDKFSQGDKIKVKIIKIDEENQKISLSTKELSSSPVQEYAKIHKVGDIVKGAIRDIKDFGVFVELSKNVDALIHKEDISTSMLENLKIGDDIEAAIVFIDEKKNRIRLSVKNLVRIKEREVLNEINNDDKVTLGDIIKDQLALEHHHHHH, MSLQELPVPKPHQLKWHEAEMGAVFHYDLHVFDGIRYGQGNNRINPIEDYNIFNPTELNTDQWVQAAKAAGCKFAVLTATHETGFGLWQSDVNPYCLKAVKWRDGKGDIVRDFVNSCRKYGLQPGIYIGIRWNSLLGIHNFKAEGEGAFARNRQAWYKRLCEKMVTELCTRYGDLYMIWFDGGADDPRADGPDVEPIVNKYQPNCLFYHNIDRADFRWGGSETGTVEYPCWSTFPVPCSHHKRIESSIDQLELLKHGDKNGRYWVPAMADTPLRGANGRHEWFWEPDDENNIYPLNTLMDKYEKSVGRNATLILGLTPDPTGLIPAGDAQRLKEMGDEINRRFSSPIARISGQKKSLTLKLGKEQSVNYCIIQENIKNGERIRQYQIEAKVNGKWQTVCKGESVGHKRIEKFEPVEATALRLTVSESIALPDIINFSAYSVKEGHHHHHH, GMNLTELMERIPHLREILNIVREAFKDYDDPAHDISHTFRVMENASEIASREKCDLQKAIIAALLHDIKRPHEALTGVDHAESGAEYASGLLPTMGFDISFVAEVSKAIRSHRYSGGLTPTSLTGKILQDADRLDAIGAVAIARVFSYSGKTGTPLHSLQFSPRSSYSGNSRSSINHFHEKILKIRPETFWTETARKMAEDRYSFVVEFVQRFLAEWGQI, SNAMIYPDETMLYAPVEWHDCSEGYTDIRYEKSTDGIAKITINRPQVRNAFRPLTVKEMIQALADARYDDNVGVIILTGEGDKAFCAGGDQKVRGDYGGYQDDSGVHHLNVLDFQRQIRTCPKPVVAMVAGYSIGGGHVLHMMCDLTIAAENAIFGQTGPKVGSFDGGWGASYMARIVGQKKAREIWFLCRQYDAQQALDMGLVNTVVPLADLEKETVRWCREMLQNSPMALRCLKAALNADCDGQAGLQELAGNATMLFYMTEEGQEGRNAFNQKRQPDFSKFKRNP, MASIADAIGKILTAHSPYPAVVVDRHWNMVDANDAVAVLTEGCAAELLEPPVNVLRLSLHPDGMAPRILDLAQWRGHLLHRLRHQIAVTGDDGLRDLLRELEGYPGGTVGSAELPGSLVVPLRIRHHETVLAFLSTTTMFGTPLDVTVAELAIESFFPADAVTAATLRSSVSSD

Soluble on expression in E. coli, not soluble:
MGSDKIHHHHHHMENKLLVFLEAIQQHNSMTKAAQSLFISQPYISRTIKSAETHFGTPLIDRGHHPLELTYAGERLLTYLQSDARLHQRMNTELKEISQNKYQSMTIGITPPMANAWFSQTLPAFYQRFPNIRTKILEITTSKAETLLASHQLDFFIGKTIHQTNVKTIPLQTISLSLVIPKTAGIYQSNQFWRPFTPTILTGMTGEPVIRAVGEARFQELVDHYFADKGIQTIPLIEVDNSRFALSLTLQGLGSIVLATAMLARLATEPAKYPINAFKLPTSELSLDFSIAYLPSHVLAKPIAYLVEQACQTFNPAIDF, MQAKLFMIPWLIELVISQRAPSPPNPTPSAQVLTNDLLVDAHRRHFLDMLRRQQQINDALLLNNALLHPHPLPPLHIPANPAIQELNLPPAPPLFNPFIPAQVANQGPTSKLGTYGKDDEPEKKSEELKETPEEKEGTVGAPVRTDLVKKTLAGVKTVSIQKKGDVTGETLTTMEVVAPTTSTISPEDLEVVQLFKKLNLSKEETKSIVERVEQVVREKLMSKMDTSSTTTEVTTVVTTPSTTTTTTSTTQAPTTTTKEFIEEEIEEEDYSVATTAPPPQMHIRSEENLILQRNNLKHHPIKLQEKKLPESLESEEISQGSIKTSLTHLPIFVANEEEDVASLNPKSALHKRILIASQDREKESDRDLLVDFATGAPLDLSEPDVTKSKYEASPVATSPATLAPAQVTTRPVAPPRLNYHERTDFERLASDYRRRLENTGDINKILQKISENAYISLVERGGRRRLFGS, MNPDKTVLSCHNPEWRGERPAPSLIARCAQLAMLLEVSASPKPGNVDREHNYPDTCFEHFVASSVAVYPVFELAAKSTGRIGQLLRSAVYESSAWQQGGNTHFGAFLLLIPLAMAAGEISREQGEQPGCGKTFFRIEAEEFENLASHAHAFVRETDCEDAVEFYRAFGHAGVRVNSVEEFDLEDPEATSDLRNQNITLYSLMEIAKGYDLIANEWTSGFGRCLEGAKIILDFMDARNCREEALAGGSVSICSGTGINEAVVYTFLKLLSKHRDTFIQTKFDAETADYVSSRAGEVLSGWEISGKKAGDFASILPRIQEFDSELLDKRINPGSTADIIIAALFIALLGGLRF, MNTDKQVYPLYYEAKNDKVRKRLGIKGGFYWAEAKKLSIAISRGAVAIDDAGYDEDDFKKPVRVNLPVVDDLPPEGVFDTEFCNRYEKGGEDGITMVFIASSPSVQDKPASTDNTNVNGEDMTEIEENMLLPVSGQELPIRWLAQHGSEKPVTHVSRDELQALHIARDEELPAVTALAVSHKTSLLDPLEIRDLHKLVRDTDRVFPNPGNSSLGLMTAFFEAYMDADYTDRGLLTKEWMKGNRVSRITRTASGANAGGGNLTDRGEGFVHDLTSLARDVATGVLARSMDVDIYNLHPAHAKRVEEIIAENKPPFSVFRDKFITMPGGMDYSRAIVVASVKEAPIGIEVIPAHVTEYLNKVLTETDHANPDPEIVDIACGRSSAPMPQRVTEEGKQDDEEKTQPSGAMADEQATAETMEPDATEHHQNTQPLDAQSQVNSVDEKYQELRAELHEARKNIPPKNPVDADKLLAALR, MGSDKIHHHHHHVNQVSARRPVTVTGEDWFEIAKTLEISSESVVQDFLRDNPGFAADLVIPKRVTIETVFGCNARCGMCVIDQPTERPKGTMPLEQFKAIVDKLVPYRDRIEMMDFFALGEPLIDTHLFERIRYVKAKGFRRLAFATNAHLLTAAKRRDLLESGIDTVIFSIDGITKATHESIRERVNFDKVMENVQAVIRERDQGDFKTRFVVRFVRQAKNRHEWEEYKAFWSSRISPDRNDVVTSYDMHTWGGQVANKDDVIGGEQQRDEMVERLPCHHAFDKLTILADGSIPLCSEDILEPAYGFGKIGDQDPIQVFNSERLRAMRRLHLAGRKALLKGCGECTLLYSEPRRGSD, MAHHHHHHMSEAAALESIMRPPSPELQRRLFVPTPSLHASAETARQHRAERQSALLAERATAYTCHPAILPVSREMAASERRRNGWMQLPVGDVLMERHKRVEGHLEEKRQQEVARFSFRPTISARARTMQSSRPVVERLYSGTADAGTDTATFTDVTNLRSSSGEKTKTASMATYQRLYQDAVTRRAHDQMQEKLARVRSKNEFCPCTDSVSGLIASKRGDTTRERLLRPKAALDVARDVYPQETFAPRINTSTRFERVPLSARAAIWQRRRSERLHHAVVARCEVEMRECTFHPRTRRGLTALSQAHARATADSYTGPLASIMSSAEELLRRVDLEASAPLPESGRCAPLLDDDGKLPGTVPVDILAVLHEAEHVSEALRLLPDTNLDLDLSQHTSLG, MSCRKSAPDQCSIWQSEIGVFKMFITMNRLLRLQIMIPELFLYNETHQGLNNQNVHAVGAYFDQHDPEGLQQVVPLLNEAAANQDVVVIDSMASLVDLYTMDSRGLHEICDLATPFFQLLAHPRISMEVKLLINRLKGVLLTRDAAILQLIIQVYENIAEGDQEAEEADERVKALLAERFGNDI
